What was measured:
[1] = molecular target: T1, HIS-tagged human CD73 (huCD73-HIS) (human, UniProt P21589 27-547); assay: cell-based or functional assay
T1 sequence: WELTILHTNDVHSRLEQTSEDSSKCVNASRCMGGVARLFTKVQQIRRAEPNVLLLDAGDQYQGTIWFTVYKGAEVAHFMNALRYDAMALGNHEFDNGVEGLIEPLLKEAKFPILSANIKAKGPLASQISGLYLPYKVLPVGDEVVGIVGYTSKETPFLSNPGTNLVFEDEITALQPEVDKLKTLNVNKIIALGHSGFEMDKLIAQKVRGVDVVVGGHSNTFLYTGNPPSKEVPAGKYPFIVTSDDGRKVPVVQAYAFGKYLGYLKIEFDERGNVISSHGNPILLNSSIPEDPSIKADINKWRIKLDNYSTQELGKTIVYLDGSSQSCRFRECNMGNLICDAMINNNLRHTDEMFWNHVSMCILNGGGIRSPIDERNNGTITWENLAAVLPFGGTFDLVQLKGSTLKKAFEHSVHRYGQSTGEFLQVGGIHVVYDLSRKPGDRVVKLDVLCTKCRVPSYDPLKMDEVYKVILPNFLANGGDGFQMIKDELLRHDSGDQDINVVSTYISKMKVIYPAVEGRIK

[2] = molecular target: T2, human CD73 expressed on the surface of cells (human, UniProt P21589 27-549); assay: cell-based or functional assay
T2 sequence: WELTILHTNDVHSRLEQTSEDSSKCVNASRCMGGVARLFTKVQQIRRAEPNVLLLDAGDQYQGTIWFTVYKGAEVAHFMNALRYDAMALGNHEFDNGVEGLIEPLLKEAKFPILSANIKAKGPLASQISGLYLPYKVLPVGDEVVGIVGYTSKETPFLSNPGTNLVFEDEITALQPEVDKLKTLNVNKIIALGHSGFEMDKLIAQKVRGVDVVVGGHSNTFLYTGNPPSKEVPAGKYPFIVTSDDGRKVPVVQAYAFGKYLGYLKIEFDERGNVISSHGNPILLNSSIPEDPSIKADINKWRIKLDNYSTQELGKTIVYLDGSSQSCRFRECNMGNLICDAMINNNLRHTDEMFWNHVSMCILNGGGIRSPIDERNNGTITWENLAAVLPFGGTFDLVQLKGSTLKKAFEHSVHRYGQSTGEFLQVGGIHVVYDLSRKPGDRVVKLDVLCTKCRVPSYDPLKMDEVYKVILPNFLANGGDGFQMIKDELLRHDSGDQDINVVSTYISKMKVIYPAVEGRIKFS

Binder	IC50 (nM), huCD73 enzymatic assay in solution [1] [nM]	IC50 (nM), cell-based CD73 activity assay (A375 cells) [2] [nM]
60A9-H1L1 (antibody, V domains shown) VH: EVQLVESGGGLVQPGQSLKLSCKASGYAFSSYWMNWVRQAPGKGLEWMGQIYPGDGDTYYNPSVKGRFTISADTSKNTAYLQLNNLRAEDTAVYYCAREAIYYGNYVFTYWGQGTLVTVSS VL: DIQMTQSPSLLSASLGDRVTITCKSSQSLLNSSNQKNYLAWYQQKPGQSPKLLIYFASTRDSGVPDRFSGSGSGTDFTLTISSLEPEDFATYYCQQHYSTPLTFGGGTKLEIK	3.34	–
60A9-H2L1 (antibody, V domains shown) VH: EVQLVESGGGLVQPGGSLRLSCKASGYAFSSYWMNWVRQAPGKGLEWVGQIYPGDGDTYYNPSVKGRFTISADTSKNTLYLQMNSLRAEDTAVYYCAREAIYYGNYVFTYWGQGTLVTVSS VL: DIQMTQSPSLLSASLGDRVTITCKSSQSLLNSSNQKNYLAWYQQKPGQSPKLLIYFASTRDSGVPDRFSGSGSGTDFTLTISSLEPEDFATYYCQQHYSTPLTFGGGTKLEIK	4.13	–
60A9-H4L1 (antibody, V domains shown) VH: EVQLVESGGGLVQPGQSLKLSCKASGYAFSSYWMNWVRQAPGKGLEWIGQIYPGDGDTYYSGSVKGRATLSADKSKNTAYLQLNNLRAEDTAVYYCAREAIYYGNYVFTYWGQGTLVTVSS VL: DIQMTQSPSLLSASLGDRVTITCKSSQSLLNSSNQKNYLAWYQQKPGQSPKLLIYFASTRDSGVPDRFSGSGSGTDFTLTISSLEPEDFATYYCQQHYSTPLTFGGGTKLEIK	3.1	–
60A9-H4L2 (antibody, V domains shown) VH: EVQLVESGGGLVQPGQSLKLSCKASGYAFSSYWMNWVRQAPGKGLEWIGQIYPGDGDTYYSGSVKGRATLSADKSKNTAYLQLNNLRAEDTAVYYCAREAIYYGNYVFTYWGQGTLVTVSS VL: DIVMTQSPSSLSASLGDRVTITCKSSQSLLNSSNQKNYLAWYQQKPGQSPKLLIYFASTRDSGVPDRFSGSGSGTDFTLTISSLEPEDFATYYCQQHYSTPLTFGGGTKLEIK	4.97	–
60A9-H3L1 (antibody, V domains shown) VH: EVQLVESGGGLVQPGQSLKLSCKASGYAFSSYWMNWVRQAPGKGLEWIGQIYPGDGDTYYNPSVKGRATLSADKSKNTAYLQLNNLRAEDTAVYYCAREAIYYGNYVFTYWGQGTLVTVSS VL: DIQMTQSPSLLSASLGDRVTITCKSSQSLLNSSNQKNYLAWYQQKPGQSPKLLIYFASTRDSGVPDRFSGSGSGTDFTLTISSLEPEDFATYYCQQHYSTPLTFGGGTKLEIK	2.94	–
60A9-H4L4 (antibody, V domains shown) VH: EVQLVESGGGLVQPGQSLKLSCKASGYAFSSYWMNWVRQAPGKGLEWIGQIYPGDGDTYYSGSVKGRATLSADKSKNTAYLQLNNLRAEDTAVYYCAREAIYYGNYVFTYWGQGTLVTVSS VL: DIVMTQSPSLLSASLGDRVTISCKSSQSLLNSSNQKNYLAWYQQKPGQSPKLLVYFASTRDSGVPDRFSGSGSGTDFTLTISSLEPEDFATYFCQQHYSTPLTFGAGTKLEIK	–	135
60A9-H2L2 (antibody, V domains shown) VH: EVQLVESGGGLVQPGGSLRLSCKASGYAFSSYWMNWVRQAPGKGLEWVGQIYPGDGDTYYNPSVKGRFTISADTSKNTLYLQMNSLRAEDTAVYYCAREAIYYGNYVFTYWGQGTLVTVSS VL: DIVMTQSPSSLSASLGDRVTITCKSSQSLLNSSNQKNYLAWYQQKPGQSPKLLIYFASTRDSGVPDRFSGSGSGTDFTLTISSLEPEDFATYYCQQHYSTPLTFGGGTKLEIK	11.2	–
60A9-H3L2 (antibody, V domains shown) VH: EVQLVESGGGLVQPGQSLKLSCKASGYAFSSYWMNWVRQAPGKGLEWIGQIYPGDGDTYYNPSVKGRATLSADKSKNTAYLQLNNLRAEDTAVYYCAREAIYYGNYVFTYWGQGTLVTVSS VL: DIVMTQSPSSLSASLGDRVTITCKSSQSLLNSSNQKNYLAWYQQKPGQSPKLLIYFASTRDSGVPDRFSGSGSGTDFTLTISSLEPEDFATYYCQQHYSTPLTFGGGTKLEIK	4.97	–
60A9-H3L4 (antibody, V domains shown) VH: EVQLVESGGGLVQPGQSLKLSCKASGYAFSSYWMNWVRQAPGKGLEWIGQIYPGDGDTYYNPSVKGRATLSADKSKNTAYLQLNNLRAEDTAVYYCAREAIYYGNYVFTYWGQGTLVTVSS VL: DIVMTQSPSLLSASLGDRVTISCKSSQSLLNSSNQKNYLAWYQQKPGQSPKLLVYFASTRDSGVPDRFSGSGSGTDFTLTISSLEPEDFATYFCQQHYSTPLTFGAGTKLEIK	–	134
60A9-H2L3 (antibody, V domains shown) VH: EVQLVESGGGLVQPGGSLRLSCKASGYAFSSYWMNWVRQAPGKGLEWVGQIYPGDGDTYYNPSVKGRFTISADTSKNTLYLQMNSLRAEDTAVYYCAREAIYYGNYVFTYWGQGTLVTVSS VL: DIQMTQSPSLLSASLGDRVTITCKSSQSLLNSSNQKNYLAWYQQKPGQSPKLLVYFASTRDSGVPDRFSGSGSGTDFTLTISSLEPEDFATYYCQQHYSTPLTFGGGTKLEIK	4.57	–
60A9-H1L3 (antibody, V domains shown) VH: EVQLVESGGGLVQPGQSLKLSCKASGYAFSSYWMNWVRQAPGKGLEWMGQIYPGDGDTYYNPSVKGRFTISADTSKNTAYLQLNNLRAEDTAVYYCAREAIYYGNYVFTYWGQGTLVTVSS VL: DIQMTQSPSLLSASLGDRVTITCKSSQSLLNSSNQKNYLAWYQQKPGQSPKLLVYFASTRDSGVPDRFSGSGSGTDFTLTISSLEPEDFATYYCQQHYSTPLTFGGGTKLEIK	4.96	–
60A9-H1L2 (antibody, V domains shown) VH: EVQLVESGGGLVQPGQSLKLSCKASGYAFSSYWMNWVRQAPGKGLEWMGQIYPGDGDTYYNPSVKGRFTISADTSKNTAYLQLNNLRAEDTAVYYCAREAIYYGNYVFTYWGQGTLVTVSS VL: DIVMTQSPSSLSASLGDRVTITCKSSQSLLNSSNQKNYLAWYQQKPGQSPKLLIYFASTRDSGVPDRFSGSGSGTDFTLTISSLEPEDFATYYCQQHYSTPLTFGGGTKLEIK	6.17	–
60A9-H5L3 (antibody, V domains shown) VH: EVQLVESGGGLVQPGQSLKLSCKASGYAFSSYWMNWVKQRPGKGLEWIGQIYPGDGDTYYSGKFKGRATLSADKSKNTAYLQLNNLRAEDTAVYYCAREAIYYGNYVFTYWGQGTLVTVSS VL: DIQMTQSPSLLSASLGDRVTITCKSSQSLLNSSNQKNYLAWYQQKPGQSPKLLVYFASTRDSGVPDRFSGSGSGTDFTLTISSLEPEDFATYYCQQHYSTPLTFGGGTKLEIK	–	36.4
60A9-H5L2 (antibody, V domains shown) VH: EVQLVESGGGLVQPGQSLKLSCKASGYAFSSYWMNWVKQRPGKGLEWIGQIYPGDGDTYYSGKFKGRATLSADKSKNTAYLQLNNLRAEDTAVYYCAREAIYYGNYVFTYWGQGTLVTVSS VL: DIVMTQSPSSLSASLGDRVTITCKSSQSLLNSSNQKNYLAWYQQKPGQSPKLLIYFASTRDSGVPDRFSGSGSGTDFTLTISSLEPEDFATYYCQQHYSTPLTFGGGTKLEIK	–	57.3
60A9-H2L4 (antibody, V domains shown) VH: EVQLVESGGGLVQPGGSLRLSCKASGYAFSSYWMNWVRQAPGKGLEWVGQIYPGDGDTYYNPSVKGRFTISADTSKNTLYLQMNSLRAEDTAVYYCAREAIYYGNYVFTYWGQGTLVTVSS VL: DIVMTQSPSLLSASLGDRVTISCKSSQSLLNSSNQKNYLAWYQQKPGQSPKLLVYFASTRDSGVPDRFSGSGSGTDFTLTISSLEPEDFATYFCQQHYSTPLTFGAGTKLEIK	–	46
60A9-H4L3 (antibody, V domains shown) VH: EVQLVESGGGLVQPGQSLKLSCKASGYAFSSYWMNWVRQAPGKGLEWIGQIYPGDGDTYYSGSVKGRATLSADKSKNTAYLQLNNLRAEDTAVYYCAREAIYYGNYVFTYWGQGTLVTVSS VL: DIQMTQSPSLLSASLGDRVTITCKSSQSLLNSSNQKNYLAWYQQKPGQSPKLLVYFASTRDSGVPDRFSGSGSGTDFTLTISSLEPEDFATYYCQQHYSTPLTFGGGTKLEIK	2.74	–
60A9-H5L1 (antibody, V domains shown) VH: EVQLVESGGGLVQPGQSLKLSCKASGYAFSSYWMNWVKQRPGKGLEWIGQIYPGDGDTYYSGKFKGRATLSADKSKNTAYLQLNNLRAEDTAVYYCAREAIYYGNYVFTYWGQGTLVTVSS VL: DIQMTQSPSLLSASLGDRVTITCKSSQSLLNSSNQKNYLAWYQQKPGQSPKLLIYFASTRDSGVPDRFSGSGSGTDFTLTISSLEPEDFATYYCQQHYSTPLTFGGGTKLEIK	–	61
